Test results as given in the supplement of paper PMC12042874.
± gives the uncertainty stated by the source.

Assay: amyloid nucleation score (Sup35N fusion, yeast selection) (log enrichment); library NNK2; higher = more nucleation; inactive = no reads after selection
How it was run: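 On medium lacking adenine and uracil, psi-negative yeast expressing peptides of 20 random codons fused to Sup35N were grown 7 days at 30°C after a 24-hour induction with 100 μM copper sulfate. Illumina sequencing of input and output plasmid inserts gave the reads, and sequences under 100 input reads were excluded. The nucleation score is the DiMSum log enrichment of output over input reads, centred on the mode score of non-aggregating sequences.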
For YVNRVSCKVASRNCHHNGKS, the amyloid nucleation score was -0.235 ± 1.1.
IEYWRSGVMELGHVVSYRDI gave an amyloid nucleation score of 0.102 ± 0.77.
In the case of CLTSFEES, the amyloid nucleation score is reported as -0.155 ± 0.65.
RVLSIRSFP gave an amyloid nucleation score of 1.64 ± 0.13.
Work on SYRNTIWVSINALGVSWEAS yielded an amyloid nucleation score of 2.52 ± 0.078.
Work on TTMCMGLLTNWWAGRCL yielded an amyloid nucleation score of 2.76 ± 0.1.
WHNDSTG showed an amyloid nucleation score of 0.619 ± 0.22.
With YKKGGLFDC the amyloid nucleation score was -1.38 ± 0.39.
In the case of SLHFCQTVFFYMQILSMLAC, the amyloid nucleation score is reported as “inactive”.
DIPPKDLLGVFIDDEIREYC gave an amyloid nucleation score of -0.436 ± 0.76.
For SHEIVCTSVRSLTIFKQVQR, the amyloid nucleation score was 3.24 ± 0.059.
Work on YDLRVMWRNVSSDFLREKVC yielded an amyloid nucleation score of -0.249 ± 1.
In the case of SLVTSIVQG, the amyloid nucleation score is reported as -0.434 ± 0.64.
EERVCLSPSDSSSRMLGQKV gave an amyloid nucleation score of -0.078 ± 0.35.
Substance LLSWVHR has an amyloid nucleation score of -0.357 ± 0.5.
For RNCHYYILVTLCNVKNVYL, the amyloid nucleation score was 8.283 ± 0.054.
IYLVSNLMGYKCFLSNHLAR gave an amyloid nucleation score of 0.151 ± 0.32.
YSARRSGNFPVVRLMMNDLT showed an amyloid nucleation score of -0.153 ± 0.65.
In the case of RECQHF, the amyloid nucleation score is reported as -0.077 ± 0.74.
KFKATWYRNSFRAMPCVKPA gave an amyloid nucleation score of 0.042 ± 1.1.
In the case of KCGRWPANAVYWHDTLSCAC, the amyloid nucleation score is reported as 0.231 ± 0.31.
In the case of IFSQGHEYKRDELKNV, the amyloid nucleation score is reported as “inactive”.
In the case of NVYLTQSWSFHNLHRFYYST, the amyloid nucleation score is reported as 2.57 ± 0.083.
For PINVRNYKRVCGGMVV, the amyloid nucleation score was “inactive”.
YVGSTLAFNNKIGGDYNMKS gave an amyloid nucleation score of -0.54 ± 1.1.
FLDPTVFSYLQVTCDIVDLH showed an amyloid nucleation score of -0.113 ± 1.1.
CAMVKFY showed an amyloid nucleation score of -1.3 ± 0.62.
Work on NVLNGISKLMRHFALKYASM yielded an amyloid nucleation score of 0.528 ± 0.4.
MSCSSIRLFQDSIRLCRTSR showed an amyloid nucleation score of -0.02 ± 0.32.
Work on DKPVSTH yielded an amyloid nucleation score of -0.861 ± 1.
TMYRYASFKADLSDFKAAYE gave an amyloid nucleation score of 0.524 ± 0.81.
CVNVTLASFQVLNNPLHRSF gave an amyloid nucleation score of 4.896 ± 0.041.
FNSWLV showed an amyloid nucleation score of -0.86 ± 1.1.
Work on ADDFINVNDTNKTVLCMCCG yielded an amyloid nucleation score of -0.61 ± 0.78.
YVDAEARLFCGLLGLVFGDL gave an amyloid nucleation score of 5.47 ± 0.097.
With INQHEPFPPGVVLKVHKTL the amyloid nucleation score was -0.021 ± 0.34.
Substance IVGAIRSKILGTGQTRVIWG has an amyloid nucleation score of 0.477 ± 0.65.
PTLTSIELSSTPRIRFWDSA gave an amyloid nucleation score of 0.122 ± 0.26.
Work on RRFKSDLL yielded an amyloid nucleation score of 1.57 ± 0.44.
In the case of FPVYRI, the amyloid nucleation score is reported as “inactive”.
For VPYSICSKSSRESCRYVWYG, the amyloid nucleation score was 3.79 ± 0.053.
LFAIGEVTAYSGRLFSFYTQ gave an amyloid nucleation score of 1.79 ± 0.26.
Work on LCVVY yielded an amyloid nucleation score of -0.237 ± 0.35.
TPILFVT gave an amyloid nucleation score of -0.746 ± 0.56.
With LNGYATLCYPVILSRIVYGP the amyloid nucleation score was 4.03 ± 0.043.
With NLCDYSSSRLIASRNMHYTA the amyloid nucleation score was 4 ± 0.07.
For YFTGSPVVHRLLSYNLFLRF, the amyloid nucleation score was 5.726 ± 0.039.
Work on GVVTFV yielded an amyloid nucleation score of 0.157 ± 0.76.
LIRVYDSDATTIDRLGVCRW gave an amyloid nucleation score of 0.726 ± 0.35.
With FGVITNSGCGRLFAEEKTRW the amyloid nucleation score was 1.15 ± 0.16.
For TMPTY, the amyloid nucleation score was 0.709 ± 0.66.
GALNISLDTLMVSRCYFHSP gave an amyloid nucleation score of 0.945 ± 0.31.
Substance MLYVAVTS has an amyloid nucleation score of 0.459 ± 0.25.
For WNTAYGRVLASL, the amyloid nucleation score was 2.32 ± 0.092.
Work on QGGFMIFDRITGGLRVMNGL yielded an amyloid nucleation score of 0.263 ± 0.23.
FNTNRNEMCSML showed an amyloid nucleation score of -0.476 ± 1.1.
Work on PCVSMSVYILQLGPLGAWSR yielded an amyloid nucleation score of 7.454 ± 0.054.
In the case of SLFGQLSCQASCRSSKDGGN, the amyloid nucleation score is reported as 6.375 ± 0.061.
Work on KFFDRYMFTRGLHT yielded an amyloid nucleation score of 7.819 ± 0.051.
For FMHNHGPGLDTYAYGTR, the amyloid nucleation score was -1.13 ± 0.64.
With WIIHMSSEAYYPSSFGRIVI the amyloid nucleation score was -0.872 ± 1.1.
YRPMEGRLKWSMTVLIVSLY gave an amyloid nucleation score of 0.497 ± 0.46.
In the case of VLNERYSTLVVAPTRNASGL, the amyloid nucleation score is reported as “inactive”.
In the case of PHAHRNANLVWHQGKAPKGG, the amyloid nucleation score is reported as 1.12 ± 0.53.
CKLWECTLLVGWGNLLRVRG gave an amyloid nucleation score of -0.276 ± 0.76.
In the case of RDYGQFCRSFGHLGLFLGSQ, the amyloid nucleation score is reported as “inactive”.
Substance YYRIWYRVLIPSP has an amyloid nucleation score of -0.43 ± 0.29.
FYGPFV showed an amyloid nucleation score of 0.729 ± 0.23.
For SNGLMSACRWYLPAFLED, the amyloid nucleation score was “inactive”.
Work on FEMIC yielded an amyloid nucleation score of 0.783 ± 0.57.
With MASSFQFSDTGSELTSREAR the amyloid nucleation score was -0.237 ± 0.79.
PVFAFQYLSLCKWDLF gave an amyloid nucleation score of -0.976 ± 1.
Substance DKSSMYSSTMRPL has an amyloid nucleation score of 0.06 ± 0.65.
With LFWDLSY the amyloid nucleation score was -0.959 ± 0.36.
For YNWGNASSSGVKPEPGGQPT, the amyloid nucleation score was 0.696 ± 0.27.
With PICESWHFSLIVLMLFLNWE the amyloid nucleation score was “inactive”.
In the case of RCMLKSIRLLSSVGRLHYRW, the amyloid nucleation score is reported as 0.742 ± 0.48.
Work on VGSKWLNGSRGKRLELRIGR yielded an amyloid nucleation score of 4.03 ± 0.12.
NSQGYFMFIKVDHS gave an amyloid nucleation score of -1.39 ± 1.1.
With TFDWKTSKPYANKPLRFETS the amyloid nucleation score was 0.284 ± 0.34.
For LLYEPFVWVYKHRYVVTGYS, the amyloid nucleation score was -1.76 ± 0.76.
Substance RVRGGEYRRSYTKWWEGCGS has an amyloid nucleation score of 3.19 ± 0.091.
In the case of PHHMIDAGASPSLN, the amyloid nucleation score is reported as -1.52 ± 0.62.
For LVNWFVDYRSDVSHLQTGKV, the amyloid nucleation score was 1.08 ± 0.36.
With DVMYFGASLGTFVGVIADWE the amyloid nucleation score was “inactive”.
RMGSYDVNRNSFFKCSGRVS gave an amyloid nucleation score of -0.864 ± 0.78.
